These are literature values, as cited in article PMC7072864.

This series addresses EAG1 CNBHD CNBHD (Mus musculus) (UniProt Q60603).

As for “EAG1 PAS domain PAS (from UniProt Q60603)”, the Kd (usually the equilibrium constant for the complex coming apart) was 13 µM.
